Data on one substance can be found in publication PMC12056172.

The target of this test is FLAG-tagged RHOA (UniProt P61586). Put plainly: co-IP.
UniProt P61586, sequence (P61586 whole entry): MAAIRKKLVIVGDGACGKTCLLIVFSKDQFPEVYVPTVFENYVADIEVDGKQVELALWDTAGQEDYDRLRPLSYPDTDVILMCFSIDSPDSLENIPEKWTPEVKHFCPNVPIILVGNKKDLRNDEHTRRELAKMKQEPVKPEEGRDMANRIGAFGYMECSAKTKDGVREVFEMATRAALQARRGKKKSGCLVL

With “DAAM1-ΔDAD without microexon (-MIC) (domain or fragment)”, the decrease of the co-IP signal against the +MIC construct came to 40%.
